Substitutions are numbered along the chain they refer to. In names and notes the source's numbering stands. Values belong to the binder of their own block, whether it stands above or below them.
Molecular target: plasma purified human complement protein C3 (human) (UniProt P01024)
Assay: cell-based or functional assay

Sequence of plasma purified human complement protein C3 (human) (P01024 23-667, chain 1 of 2): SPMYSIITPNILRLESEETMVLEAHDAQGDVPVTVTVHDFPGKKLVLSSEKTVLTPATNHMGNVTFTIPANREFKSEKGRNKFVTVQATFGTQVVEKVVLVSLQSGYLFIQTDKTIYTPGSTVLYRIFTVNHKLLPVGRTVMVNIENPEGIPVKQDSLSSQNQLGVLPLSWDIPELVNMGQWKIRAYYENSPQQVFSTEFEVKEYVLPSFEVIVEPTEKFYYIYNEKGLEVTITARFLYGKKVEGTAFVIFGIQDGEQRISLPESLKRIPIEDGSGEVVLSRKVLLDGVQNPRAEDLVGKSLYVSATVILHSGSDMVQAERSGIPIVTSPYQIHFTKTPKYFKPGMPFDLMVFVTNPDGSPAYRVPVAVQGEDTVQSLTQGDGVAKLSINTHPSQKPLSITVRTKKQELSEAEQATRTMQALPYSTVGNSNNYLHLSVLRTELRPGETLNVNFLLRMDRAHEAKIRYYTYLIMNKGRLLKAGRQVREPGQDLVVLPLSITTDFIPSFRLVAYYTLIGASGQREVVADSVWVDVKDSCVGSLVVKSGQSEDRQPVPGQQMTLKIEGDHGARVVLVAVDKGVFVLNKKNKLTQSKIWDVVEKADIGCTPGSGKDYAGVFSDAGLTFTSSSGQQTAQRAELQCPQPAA
Sequence of plasma purified human complement protein C3 (human) (P01024 672-1663, chain 2 of 2): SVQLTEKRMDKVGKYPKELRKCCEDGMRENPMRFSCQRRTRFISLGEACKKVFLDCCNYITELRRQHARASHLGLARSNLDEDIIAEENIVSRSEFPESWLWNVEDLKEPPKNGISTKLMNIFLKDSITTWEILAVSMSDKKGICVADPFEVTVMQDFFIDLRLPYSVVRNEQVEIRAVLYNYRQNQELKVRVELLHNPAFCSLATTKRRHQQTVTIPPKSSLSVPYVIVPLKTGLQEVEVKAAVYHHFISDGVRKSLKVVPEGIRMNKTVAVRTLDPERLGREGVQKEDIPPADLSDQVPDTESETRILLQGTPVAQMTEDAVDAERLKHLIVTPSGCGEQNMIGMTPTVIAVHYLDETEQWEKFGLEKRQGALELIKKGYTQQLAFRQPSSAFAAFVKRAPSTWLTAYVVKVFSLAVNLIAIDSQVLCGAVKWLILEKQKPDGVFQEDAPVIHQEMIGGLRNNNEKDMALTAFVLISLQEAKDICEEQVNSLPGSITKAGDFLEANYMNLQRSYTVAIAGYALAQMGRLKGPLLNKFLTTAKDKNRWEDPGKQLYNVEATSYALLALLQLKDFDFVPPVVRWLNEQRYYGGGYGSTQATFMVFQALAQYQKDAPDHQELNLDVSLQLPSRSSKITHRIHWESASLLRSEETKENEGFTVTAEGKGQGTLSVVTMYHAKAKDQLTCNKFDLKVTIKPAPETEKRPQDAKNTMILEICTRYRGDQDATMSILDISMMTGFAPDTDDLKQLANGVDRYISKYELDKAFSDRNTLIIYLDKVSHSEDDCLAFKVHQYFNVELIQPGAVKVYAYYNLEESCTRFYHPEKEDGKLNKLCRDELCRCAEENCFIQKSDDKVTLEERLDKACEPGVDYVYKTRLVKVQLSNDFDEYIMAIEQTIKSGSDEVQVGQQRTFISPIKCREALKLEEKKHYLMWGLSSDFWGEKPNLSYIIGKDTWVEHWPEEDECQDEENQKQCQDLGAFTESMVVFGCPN

B1: MTSP-1 protease domain F97R/ins97aI/T98P/C122S/Q175M/Q192V/D217I (enzyme)
chain: VVGGTDADEGEWPWQVSLHALGQGHICGASLISPNWLVSAAHCYIDDRGFRYSDPTQWTAFLGLHDQSQRSAPGVQERRLKRIISHPFFNDRIPFDYDIALLELEKPAEYSSMVRPISLPDASHVFPAGKAIWVTGWGHTQYGGTGALILQKGEIRVINQTTCENLLPQMITPRMMCVGFLSGGVDSCVGDSGGPLSSVEADGRIFQAGVVSWGIGCAQRNKPGVYTRLPLFRDWIKENTGV
- EC50 hC3 cleavage: 23.6 nM

B2: MTSP-1 protease domain F97E/F99L/C122S/G151A/Q192V (enzyme)
chain: VVGGTDADEGEWPWQVSLHALGQGHICGASLISPNWLVSAAHCYIDDRGFRYSDPTQWTAFLGLHDQSQRSAPGVQERRLKRIISHPFFNDETLDYDIALLELEKPAEYSSMVRPISLPDASHVFPAGKAIWVTGWGHTQYGGTAALILQKGEIRVINQTTCENLLPQQITPRMMCVGFLSGGVDSCVGDSGGPLSSVEADGRIFQAGVVSWGDGCAQRNKPGVYTRLPLFRDWIKENTGV
- EC50 hC3 cleavage: 1040 nM

B4: MTSP-1 protease domain F97E/F99L/C122S/Q175H/Q192V/D217P (enzyme)
chain: B2 chain with A145G, Q169H, D214P
- EC50 hC3 cleavage: 7770 nM

B5: MTSP-1 protease domain I41D/F99L/C122S/Q175S/Q192T (enzyme)
chain: B2 chain with I26D, E92F, A145G, Q169S, V188T
- EC50 hC3 cleavage: 27.4 nM

B6: MTSP-1 protease domain I41D/F99L/C122S/G151N/Q175S/Q192T (enzyme)
chain: B2 chain with I26D, E92F, A145N, Q169S, V188T
- EC50 hC3 cleavage: 28.6 nM

B9: MTSP-1 protease domain I41D/F99L/C122S/Q192T (enzyme)
chain: B2 chain with I26D, E92F, A145G, V188T
- EC50 hC3 cleavage: 59.4 nM

B10: MTSP-1 protease domain I41D/F99L/C122S/G151N/Q192T/D217A (enzyme)
chain: B2 chain with I26D, E92F, A145N, V188T, D214A
- EC50 hC3 cleavage: 45.1 nM

B11: MTSP-1 I41S/F99L/C122S/G151N/Q192V (enzyme)
chain: B2 chain with I26S, E92F, A145N
- EC50 of hC3 cleavage: 34.4 nM

B12: MTSP-1 protease domain I41D/F99L/C122S/G151N/Q192T (enzyme)
chain: B2 chain with I26D, E92F, A145N, V188T
- EC50 hC3 cleavage: 47 nM

B17: MTSP-1 protease domain Q38H/I41S/Y60gW/C122S/G151H/Q192A (enzyme)
chain: B2 chain with Q23H, I26S, Y52W, E92F, L94F, A145H, V188A
- EC50 hC3 cleavage: 8.96 nM

B18: MTSP-1 protease domain I41D/F97T/F99L/C122S/G151N/Q192T (enzyme)
chain: B2 chain with I26D, E92T, A145N, V188T
- EC50 hC3 cleavage: 84.3 nM

B19: MTSP-1 I41E/F99L/C122S/G151N/Q192T (enzyme)
chain: B2 chain with I26E, E92F, A145N, V188T
- EC50 of hC3 cleavage: 124 nM

The next lines start with the values.

- EC50 hC3 cleavage: 151 nM
B3: MTSP-1 protease domain Q38L/I41R/Y60gF/F99L/C122S/G151N/Q192A (enzyme)
chain: B2 chain with Q23L, I26R, Y52F, E92F, A145N, V188A

- EC50 hC3 cleavage: 15 nM
B7: MTSP-1 protease domain Q38S/I41S/Y60gW/F99L/C122S/G151D/Q192T (enzyme)
chain: B2 chain with Q23S, I26S, Y52W, E92F, A145D, V188T

- EC50 hC3 cleavage: 9.96 nM
B8: MTSP-1 protease domain Q38K/I41G/Y60gW/F99L/C122S/G151N/Q192A (enzyme)
chain: B2 chain with Q23K, I26G, Y52W, E92F, A145N, V188A

- EC50 hC3 cleavage: 197 nM
B13: MTSP-1 protease domain Q38R/I41R/Y60gF/F99L/C122S/G151N/Q192G (enzyme)
chain: B2 chain with Q23R, I26R, Y52F, E92F, A145N, V188G

- EC50 hC3 cleavage: 52.7 nM
B14: MTSP-1 protease domain Q38K/I41D/Y60gG/F99L/C122S/G151N (enzyme)
chain: B2 chain with Q23K, I26D, Y52G, E92F, A145N, V188Q

- EC50 hC3 cleavage: 17.9 nM
B15: MTSP-1 protease domain Q38K/I41G/Y60gG/F99L/C122S/G151N/Q192H (enzyme)
chain: B2 chain with Q23K, I26G, Y52G, E92F, A145N, V188H

- EC50 hC3 cleavage: 147 nM
B16: MTSP-1 protease domain Q38R/I41G/Y60gG/F99M/C122S/G151N/Q192R (enzyme)
chain: B2 chain with Q23R, I26G, Y52G, E92F, L94M, A145N, V188R
